From the supplement of paper PMC9732359
± gives the uncertainty stated by the source.

Assay: protein stability index of a GFP-peptide fusion (yeast GPS) (PSI 1-4); higher = more stable; sorted into four equal gates, so the index is relative within each strain
In short: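 Tiled 17-residue yeast protein peptides were fused downstream of GFP in a plasmid that also expresses Cherry, and the pooled library was carried in yeast. Mid-log cultures in leucine-free medium were sorted into four equal gates by GFP/Cherry fluorescence ratio, and plasmids from each gate were PCR-amplified and Illumina-sequenced, with reads assigned to strains by barcodes. The protein stability index for each peptide was each gate's read frequency times its gate number, summed.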

Row | Sequence | protein stability index (doa10∆) | protein stability index (pdr5∆) | protein stability index (san1∆) | protein stability index (ubr1∆)
1 | TLSHLRRTNTPIGRDGK [RPB2] | 2.14 ± 0.043 | 2.26 ± 0.038 | 2.24 ± 0.057 | 2.08 ± 0.036
2 | KKMMNTLVHTRVKIANT [SSN2] | 2.69 ± 0.066 | 2.35 ± 0.05 | 2.67 ± 0.041 | 2.78 ± 0.033
3 | QQPNPLHGLTPTAKDVE [GAL11] | 3.17 ± 0.053 | 2.98 ± 0.041 | 3.15 ± 0.06 | 3.07 ± 0.033
4 | PQRLTVLRLATNKGPLA [MCD1] | 2.78 ± 0.099 | 2.39 ± 0.073 | 2.8 ± 0.074 | 2.42 ± 0.074
5 | FRYITTWENEFLDSQRV [PRP8] | 2.77 ± 0.065 | 2.69 ± 0.059 | 2.48 ± 0.061 | 3.03 ± 0.046
6 | RLTMGNVFTPEISSQIE [RRI2] | 2.7 ± 0.11 | 3.06 ± 0.079 | 2.95 ± 0.1 | 2.92 ± 0.09
7 | SFLEGSKALNSILESSM [RGR1] | 1.81 ± 0.19 | 1.59 ± 0.1 | 3.09 ± 0.21 | 2.02 ± 0.13
8 | NKLEKLNSLLTYIKSEI [SMC4] | 2.73 ± 0.061 | 2.32 ± 0.045 | 2.66 ± 0.057 | 2.87 ± 0.036
9 | NANTVFSERAAMFAALQ [SWI1] | 2.31 ± 0.049 | 2.32 ± 0.043 | 2.4 ± 0.055 | 2.38 ± 0.032
10 | AAKPDNLANFSNEVAMN [SWP82] | 3.32 ± 0.11 | 3.22 ± 0.088 | 3.15 ± 0.056 | 3.23 ± 0.067
11 | SENRNNIKSSISNGNLA [YOR098C/NUP1] |  | 3.65 ± 0.24 | 2.96 ± 0.22 | 3.17 ± 0.24
12 | STTMDGANDLGFTASVS [MED1] | 3.08 ± 0.092 | 3.1 ± 0.061 | 3.07 ± 0.072 | 2.99 ± 0.081
13 | DQIEKLREVVELPLLSP [RPT1] | 2.76 ± 0.075 | 3 ± 0.054 | 2.87 ± 0.061 | 2.94 ± 0.073
14 | ETLEHNPVALEQKLVDL [BRR2] | 2.15 ± 0.092 | 2.79 ± 0.077 | 2.43 ± 0.074 | 2.35 ± 0.11
15 | VNWLAYTYLYVRMLASP [BRR2] | 1.11 ± 0.14 | 1.14 ± 0.18 | 1.31 ± 0.19 | 1.24 ± 0.1
16 | EISKKDFVRKGGLQKGK [SIR3] | 2.38 ± 0.11 | 1.91 ± 0.083 | 1.98 ± 0.11 | 1.95 ± 0.092
17 | KLALGIALEGYRLDIIE [RPN2] | 2.51 ± 0.15 | 1.77 ± 0.11 |  | 2.19 ± 0.083
18 | DVVTREYTINLHKRLHG [RPL31A] | 2.62 ± 0.12 | 2.55 ± 0.09 | 2.66 ± 0.069 | 1.71 ± 0.067
19 | PANHLQSDFCLSWCPSR [YGL100W/SEH1] | 1.8 ± 0.18 | 2.05 ± 0.12 | 2.43 ± 0.16 | 2.4 ± 0.06
20 | SFAKLVPCEGKDVTQGL [SMC2] | 1.62 ± 0.08 | 2.07 ± 0.088 | 1.5 ± 0.23 | 1.86 ± 0.08
21 | IQEYQLCDNFNHFSLSY [COR1] | 2.35 ± 0.049 | 2.61 ± 0.053 | 2.44 ± 0.055 | 2.27 ± 0.057
22 | SRVINVVRAASSLASQD [RRP6] | 1.98 ± 0.082 | 2.47 ± 0.074 | 2.57 ± 0.18 | 
23 | GYIKNNKKIYQWNKLTS [POP6] | 2.93 ± 0.085 | 2.91 ± 0.089 | 2.89 ± 0.072 | 3.06 ± 0.081
24 | ATFLKDDLPYYVNALAD [QCR2] | 2.37 ± 0.047 | 2.21 ± 0.046 | 2.27 ± 0.053 | 2.35 ± 0.032
25 | FREWQYFKLSITSFDQD [POP8] | 1.94 ± 0.052 | 2.53 ± 0.06 | 2.52 ± 0.061 | 2.51 ± 0.045
26 | TPPAIEHKPVSPDKIGT [SSN2] | 3.03 ± 0.072 | 3.35 ± 0.066 | 3.12 ± 0.076 | 3.17 ± 0.06

Row | Sequence | protein stability index (doa10∆) | protein stability index (pdr5∆) | protein stability index (san1∆) | protein stability index (ubr1∆)
27 | QQENSKSGKRKPNIILD [RPC31] | 2.83 ± 0.099 | 2.83 ± 0.086 | 2.64 ± 0.089 | 2.79 ± 0.076
28 | AGYTDNVIRVWQVMTAN [ASC1] | 1.56 ± 0.14 | 1.35 ± 0.08 | 1.5 ± 0.21 | 1.3 ± 0.075
29 | YFGENSSISWKNIAQCL [YJL039C/NUP192] | 1.95 ± 0.084 | 2.57 ± 0.066 | 1.93 ± 0.064 | 2.11 ± 0.062
30 | SKKRQAEKLVPLPICHA [YML031W/NDC1] | 2.33 ± 0.12 | 2.5 ± 0.049 | 2.39 ± 0.087 | 2.39 ± 0.093
31 | YYEQFRPDLIKEDHPLE [SIR3] | 2.68 ± 0.058 | 2.73 ± 0.066 | 3.02 ± 0.043 | 2.67 ± 0.046
32 | DNKINEIKLLEISCKQW [CSI1] | 2.54 ± 0.18 | 2.43 ± 0.17 | 2.17 ± 0.12 | 2.45 ± 0.12
33 | SHTDQPANVLLVQSLND [NNF1] | 2.07 ± 0.071 | 2.16 ± 0.083 | 2.23 ± 0.18 | 2.7 ± 0.09
34 | QEPSASQVKDSVTETES [SRP68] | 3.27 ± 0.13 | 2.93 ± 0.18 | 3.14 ± 0.18 | 2.81 ± 0.19
35 | RFSYSPPKEGNYEIVFD [YMR129W/POM152] | 3.05 ± 0.29 | 3.24 ± 0.18 | 3.13 ± 0.071 | 3.45 ± 0.16
36 | ISLIPELSVVLSGIIQD [RRI2] | 1.75 ± 0.077 | 1.76 ± 0.09 | 1.96 ± 0.12 | 1.99 ± 0.064
37 | QAQAQAQAAQAAQAQAQ [GAL11] | 2.84 ± 0.092 | 3.02 ± 0.14 | 2.93 ± 0.066 | 3.04 ± 0.11
38 | DFIKFDQIAVCEISGSI [BRN1] | 2.32 ± 0.14 | 2.4 ± 0.12 | 2.12 ± 0.14 | 2.82 ± 0.076
39 | ADVYAKALEGKDLKEIL [RPP1B] | 3.45 ± 0.22 |  | 3.51 ± 0.14 | 3.36 ± 0.2
40 | IPDMSKNVELGWKPLRY [SNU114] | 3.29 ± 0.24 | 3.23 ± 0.23 | 2.58 ± 0.23 | 3.22 ± 0.15
41 | TQARVITGNKIMRILKS [RPS13] | 1.41 ± 0.17 | 1.24 ± 0.081 | 1.18 ± 0.12 | 1.1 ± 0.079
42 | HFFSKSCSFFAKLSDTL [NUT1] | 2.06 ± 0.047 | 1.77 ± 0.041 | 1.69 ± 0.085 | 1.95 ± 0.035
43 | SALELVGQLNKVVDQLF [RPN6] | 2.84 ± 0.045 | 2.98 ± 0.065 | 2.82 ± 0.059 | 2.68 ± 0.042
44 | FKNMGNTCYLNATLQAL [UBP6] | 1.8 ± 0.083 | 1.92 ± 0.083 | 1.55 ± 0.12 | 1.83 ± 0.071
45 | CKEVGITAVHVKIRATG [RPS14A] | 1.93 ± 0.043 | 1.82 ± 0.039 | 1.81 ± 0.085 | 1.89 ± 0.035
46 | LLGKESFKKIIKFLLTF [YCS4] | 1.45 ± 0.063 | 1.57 ± 0.11 | 1.18 ± 0.16 | 1.65 ± 0.06
47 | VNARDIPPLNKSLAMEH [CSN12] | 2.77 ± 0.23 | 2.67 ± 0.17 | 2.61 ± 0.19 | 
48 | GAAPYAAKLKQTENDLK [RPT1] | 2.06 ± 0.14 | 2.35 ± 0.17 | 2.31 ± 0.24 | 2.93 ± 0.19
49 | SLLPYYHLTKAVKLGDL [RPN3] | 2.21 ± 0.052 | 1.74 ± 0.052 | 1.72 ± 0.073 | 1.78 ± 0.066
50 | GRLSLRSLTAYAPNLML [QCR10] | 1.26 ± 0.041 | 1.9 ± 0.051 | 1.63 ± 0.081 | 1.42 ± 0.06
51 | STFENRNVGKTLVNKST [RPS1A] | 2.91 ± 0.085 | 2.74 ± 0.059 | 3.09 ± 0.055 | 3.14 ± 0.068
52 | GQRDLDRIAAQTLEEDE [RPS19A] | 3.21 ± 0.087 | 3.21 ± 0.091 | 3.29 ± 0.1 | 3.23 ± 0.097
